Results from article PMC7119934 (Peptide Characterization and Application Protocols, 2007).

Biological target: the molecule itself
Assay: SEC

B1: HRN extended (902–950) (peptide)
peptide: QKQIANQFNKAISQIQESLTTTSTALGKLQDVVNQNAQALNTLVKQLSS
stoichiometry N: 3
